Test results published in US20190211086A1 (RPEPTIDE, published 2019).

Columns and labels:
Tau Isoform 352 [1] = biological target: T1, Tau Isoform 352 (human, UniProt P10636 2-758); experiment: not named in the sentence (summary of antibody generation)
T1 construct: Obtained as a lyophilized purified isoform; also called Tau 352; tau352

Tau Isoform 410 = biological target: T2, Tau Isoform 410 (human, UniProt P10636 2-758); experiment: screening of hybridoma cell lines; assay not given
T2 construct: Obtained as a lyophilized purified isoform; also called Tau 410; tau410

Tau Isoform 412 = biological target: T3, Tau Isoform 412 (human, UniProt P10636 2-758); experiment: screening of hybridoma cell lines; assay not given
T3 construct: Obtained as a lyophilized purified isoform; also called tau412

Tau Isoform 441 = biological target: T4, Tau Isoform 441 (human, UniProt P10636 2-758); experiment: screening of hybridoma cell lines; assay not given
T4 construct: Obtained as a lyophilized purified isoform; also called tau441

Tau Isoform 381 = biological target: T5, Tau Isoform 381 (human, UniProt P10636 2-758); experiment: screening of hybridoma cell lines; assay not given
T5 construct: Obtained as a lyophilized purified isoform; also called tau381

Tau Isoform 383 [2] = biological target: T6, Tau Isoform 383 (human, UniProt P10636 2-758); experiment: ELISA, 100 ng or 50 ng coated tau isoform, antibody 1:1,000 and 1:10,000
T6 construct: Obtained as a lyophilized purified isoform; also called Tau 383; tau383
Method: More specifically, the 4G11 mAb was tested in an ELISA against 100 ng of each of the Tau isoforms at a 1:1,000 antibody dilution (FIG. 6A); against 100 ng of each of the Tau isoforms at a 1:10,000 antibody dilution (FIG. 6B); against 50 ng of each of the Tau isoforms at a 1:1,000 antibody dilution (FIG. 6C); and against 50 ng of each of the Tau isoforms at a 1:10,000 antibody dilution (FIG. 6D). […] The highest binding levels were found using 100 ng of the tau isoform with an antibody dilution of 1:1,000.
Antibody 4G11 was tested in an ELISA against 100 ng and 50 ng of the six human Tau isoform using antibodies dilutions of 1:1,000 and 1:10,000. Both 4G11 stored at −80° C. as well as a lyophilized form stored at ambient temperature were compared in this assay and the results are provided in FIGS. 6A-D (the left bar for each isoform are the results of the antibody stored at −80° C. and the right bar for each isoform is the lyophilized form, stored at 25° C.

Tau Isoform 352 [3] = biological target: T1, Tau Isoform 352; experiment: screening of hybridoma cell lines; assay not given
Tau Isoform 383 [4] = biological target: T6, Tau Isoform 383; experiment: screening of hybridoma cell lines; assay not given

Measured: binding result

T4 sequence (P10636 other isoform, or with tags, fused parts or gaps limits assumed): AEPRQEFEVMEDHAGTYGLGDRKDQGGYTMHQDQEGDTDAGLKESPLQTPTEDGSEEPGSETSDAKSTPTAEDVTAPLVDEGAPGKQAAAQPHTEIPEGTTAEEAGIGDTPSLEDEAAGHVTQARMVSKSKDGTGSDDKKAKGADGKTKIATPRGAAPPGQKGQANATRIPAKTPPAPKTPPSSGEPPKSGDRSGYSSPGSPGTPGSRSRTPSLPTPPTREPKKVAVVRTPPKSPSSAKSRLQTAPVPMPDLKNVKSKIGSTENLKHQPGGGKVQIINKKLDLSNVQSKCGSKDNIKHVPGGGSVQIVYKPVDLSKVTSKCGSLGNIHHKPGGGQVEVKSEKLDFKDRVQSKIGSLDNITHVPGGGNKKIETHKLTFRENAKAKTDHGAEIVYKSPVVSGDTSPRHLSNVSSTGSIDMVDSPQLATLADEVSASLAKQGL
T2 sequence (P10636 other isoform, or with tags, fused parts or gaps limits assumed): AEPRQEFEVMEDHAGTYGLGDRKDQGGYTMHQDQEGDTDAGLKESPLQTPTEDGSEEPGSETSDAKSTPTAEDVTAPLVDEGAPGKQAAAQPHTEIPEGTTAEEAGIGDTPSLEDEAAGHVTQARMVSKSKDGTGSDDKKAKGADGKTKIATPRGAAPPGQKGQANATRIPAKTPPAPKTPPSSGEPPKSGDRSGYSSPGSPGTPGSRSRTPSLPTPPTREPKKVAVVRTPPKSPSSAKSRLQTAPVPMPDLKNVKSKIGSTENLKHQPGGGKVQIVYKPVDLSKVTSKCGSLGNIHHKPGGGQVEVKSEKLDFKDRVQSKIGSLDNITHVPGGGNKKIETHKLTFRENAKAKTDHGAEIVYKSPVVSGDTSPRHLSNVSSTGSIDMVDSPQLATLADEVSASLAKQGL
T3 sequence (P10636 other isoform, or with tags, fused parts or gaps limits assumed): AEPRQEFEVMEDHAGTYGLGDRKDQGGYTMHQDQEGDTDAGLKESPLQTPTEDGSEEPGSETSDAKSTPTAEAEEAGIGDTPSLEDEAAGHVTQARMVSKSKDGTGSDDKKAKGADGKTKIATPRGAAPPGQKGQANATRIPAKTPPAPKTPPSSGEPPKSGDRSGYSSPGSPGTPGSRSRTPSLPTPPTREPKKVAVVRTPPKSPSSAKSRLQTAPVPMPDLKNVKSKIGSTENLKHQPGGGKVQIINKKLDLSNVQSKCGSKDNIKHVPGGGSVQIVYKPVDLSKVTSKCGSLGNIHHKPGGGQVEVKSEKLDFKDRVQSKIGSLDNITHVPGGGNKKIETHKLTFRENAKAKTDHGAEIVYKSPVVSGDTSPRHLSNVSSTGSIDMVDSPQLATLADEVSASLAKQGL
T1 sequence (P10636 other isoform, or with tags, fused parts or gaps limits assumed): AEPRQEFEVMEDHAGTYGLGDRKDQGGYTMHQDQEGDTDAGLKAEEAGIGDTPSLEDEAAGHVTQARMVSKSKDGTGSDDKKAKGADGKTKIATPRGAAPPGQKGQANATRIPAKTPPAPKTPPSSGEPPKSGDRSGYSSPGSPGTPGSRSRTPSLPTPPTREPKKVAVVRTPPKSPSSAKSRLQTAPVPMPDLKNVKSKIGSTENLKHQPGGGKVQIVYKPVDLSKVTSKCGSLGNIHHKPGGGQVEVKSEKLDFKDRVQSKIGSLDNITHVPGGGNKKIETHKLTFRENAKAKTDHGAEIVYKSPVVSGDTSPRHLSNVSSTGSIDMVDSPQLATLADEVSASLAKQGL
T6 sequence (P10636 other isoform, or with tags, fused parts or gaps limits assumed): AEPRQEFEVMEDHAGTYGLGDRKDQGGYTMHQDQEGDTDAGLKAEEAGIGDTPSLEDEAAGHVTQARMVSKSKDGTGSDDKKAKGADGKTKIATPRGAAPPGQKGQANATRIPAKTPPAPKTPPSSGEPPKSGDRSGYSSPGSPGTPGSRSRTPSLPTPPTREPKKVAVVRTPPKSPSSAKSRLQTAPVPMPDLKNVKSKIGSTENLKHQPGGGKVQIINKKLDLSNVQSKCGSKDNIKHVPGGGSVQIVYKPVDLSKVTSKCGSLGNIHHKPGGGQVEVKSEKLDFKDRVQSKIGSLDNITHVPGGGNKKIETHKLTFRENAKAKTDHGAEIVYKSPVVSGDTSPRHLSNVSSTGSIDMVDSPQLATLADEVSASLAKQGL
T5 sequence (P10636 other isoform, or with tags, fused parts or gaps limits assumed): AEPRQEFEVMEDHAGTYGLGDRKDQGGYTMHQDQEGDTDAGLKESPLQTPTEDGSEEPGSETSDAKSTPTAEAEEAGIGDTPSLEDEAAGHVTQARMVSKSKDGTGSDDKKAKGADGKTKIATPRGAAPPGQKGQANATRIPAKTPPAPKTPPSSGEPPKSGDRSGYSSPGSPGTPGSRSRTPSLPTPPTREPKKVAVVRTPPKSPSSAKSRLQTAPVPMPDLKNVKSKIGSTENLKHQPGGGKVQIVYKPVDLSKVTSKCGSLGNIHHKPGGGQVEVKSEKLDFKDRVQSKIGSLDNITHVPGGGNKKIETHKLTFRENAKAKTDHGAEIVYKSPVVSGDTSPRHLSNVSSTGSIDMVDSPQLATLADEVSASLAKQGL

B1: monoclonal antibody 4G11 (antibody, IgA, V domains shown)
VH: EVQLVESGGGLVQPKGSLKLSCAASGFTFNIYAMNWVRQAPGKGLEWVARIRSKSNNYATYYADSMKDRFTISRDDSQSMLYLQMNNLKTEDTAMYYCVRHGNYYFDYWGQGTTLTVSS
VL: ENVLTQSPAIMAASLGQKVTMTCSADSSVSSSYLNWYQQKSGASPKPLIHRTSNLASGVPARFSGSGSGTSYSLTISSVEAEDDATYYCQQWSGYPFIFTFGSGTKLEIK
notes: also called Tau 4G11; mAb 4G11
not listed: Tau Isoform 352 [3] | Tau Isoform 383 [4]
binds: all other assays above

B2: monoclonal antibody 1A6 (antibody, IgM, V domains shown)
VH: DVQLVESGGGLVQPGGSRKLSCAASGFTFSSFGMHWVRQVPEKGLEWVAYISSGSSTIYYADTVKGRFTISRDNPKNTLFLQMTSLRSEDTAMYYCASNQSPTGFAYWGQGTLVTVSA
VL: DVVMTQTPLSLPVSLGDQASISCRSSQSLVHSNGNTYLHWYLQKPGQSPKLLIYKVSNRFSGVPDRFSGSGSGTDFTLKISRVEAEDLGVYFCSQSTHVPLTFGAGTKLELK
notes: Mouse hybridoma antibody (h1A6, ATCC PTA-122038), from a mouse immunized with tau 352; also called Tau 1A6; mAb 1A6
not listed: Tau Isoform 352 [1] | Tau Isoform 383 [2]
binds: all other assays above
